The text below walks through data of patent US7727960B2, “C5a receptor antagonists” (Jerini AG, priority 2003, dated 2010).

Like-named read-outs stand apart in the source and are kept apart here. Positions of bridges follow the written chain, without caps; N, C: chain ends. Non-standard residues stand in square brackets, D forms with d. No end group written: not given here. *: point of attachment. Fck = HO-CH2-(CHOH)4-C=N-O-CH2-CO- (oxime-linked sugar acyl cap); Phe(F5) = N[C@@H](Cc1c(F)c(F)c(F)c(F)c1F)C(=O)O; Fbo = morpholine-4-carbonyl, O=C(N1CCOCC1)*; d(hLeu) = CC(C)CC[C@@H](N)C(=O)O; αMeF = C[C@](N)(Cc1ccccc1)C(=O)O; dCha = N[C@H](CC1CCCCC1)C(=O)O; Nle = CCCC[C@H](N)C(=O)O; Orn = NCCC[C@H](N)C(=O)O; Aze = O=C(O)[C@@H]1CCN1; Fbn = not defined here

For assay [1], the target named is T1, human C5aR (CD88) (human, UniProt P21730 1-350).
T1 sequence (looked up): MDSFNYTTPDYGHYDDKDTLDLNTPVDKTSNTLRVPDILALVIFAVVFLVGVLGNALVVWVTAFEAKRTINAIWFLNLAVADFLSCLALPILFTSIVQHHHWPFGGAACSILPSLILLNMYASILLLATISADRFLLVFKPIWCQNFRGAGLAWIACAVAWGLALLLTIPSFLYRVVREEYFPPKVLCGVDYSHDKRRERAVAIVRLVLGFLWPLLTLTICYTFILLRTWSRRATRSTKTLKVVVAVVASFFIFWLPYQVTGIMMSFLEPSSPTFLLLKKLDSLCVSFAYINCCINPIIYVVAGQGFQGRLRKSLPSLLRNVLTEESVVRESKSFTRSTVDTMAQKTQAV
In words: cell-based or functional assay.

Assay [2] has as its target T1, human C5aR (CD88). In words: cell-based or functional assay. This is another data set of the same source.

The molecule “Ac-Phe-Orn-Pro-hle-Bta-Phe-NH2 (peptide)” returned an IC50 activity group, enzyme release assay with human C5aR (CD88) [1] below 20 nM. “Ac-Phe-Orn-Pro-hle-Mcf-Phe-NH2 (peptide)” displayed an IC50 activity group, enzyme release assay with human C5aR (CD88) [1] below 200 nM. Consider “Ac-Mff-Orn-Pro-cha-Bta-Phe-NH2 (peptide)”, for which, in the assay with human C5aR (CD88) [1], the IC50 activity group, enzyme release assay is below 200 nM. Turning to “Ac-Phe-Orn-Aze-cha-Bta-Phe-NH-Me (peptide)”, the IC50 activity group, enzyme release assay in the assay with human C5aR (CD88) [1] is below 2000 nM. With “Ac-NMF-Orn-Pro-cha-Bta-Phe-NH2 (peptide)”, the IC50 activity group, enzyme release assay with human C5aR (CD88) [1] was below 200 nM.

Molecule H-Phe-[Orn-NMS-hle-Pff-Phe] (peptide) showed an IC50 activity group, enzyme release assay with human C5aR (CD88) [1] below 200 nM. In the assay with human C5aR (CD88) [1], “Ac-Ebw-Orn-Pro-cha-Trp-Phe-NH2 (peptide)” gave an EC50, agonistic activity, enzyme release assay above 100000 nM and an IC50 activity group, enzyme release assay below 200 nM. Ac-Phe-[Orn-Hyp-hle-Pff-Phe] (peptide): in the assay with human C5aR (CD88) [1], the IC50 activity group, enzyme release assay is below 200 nM. In the assay with human C5aR (CD88) [1], “Ac-Phe-Orn-Pro-cha-Bta-Phe-NH2 (peptide)” gave an EC50, agonistic activity, enzyme release assay above 100000 nM and an IC50 activity group, enzyme release assay below 50 nM. In the assay with human C5aR (CD88) [1], “Ac-Phe-Orn-Aze-cha-Trp-Phe-NH2 (peptide)” gave an EC50, agonistic activity, enzyme release assay above 100000 nM and an IC50 activity group, enzyme release assay below 50 nM. Regarding H-Phe-[Orn-Ser-hle-Trp-Nle] (peptide), the IC50 activity group, enzyme release assay in the assay with human C5aR (CD88) [1] was below 50 nM. Ac-Phe-[Orn-NMD-cha-Trp-Nle] (peptide) displayed an IC50 activity group, enzyme release assay with human C5aR (CD88) [1] below 200 nM.

Molecule “Ac-Off-Orn-Pro-cha-Bta-Phe-NH2 (peptide)” registered an IC50 activity group, enzyme release assay with human C5aR (CD88) [1] below 50 nM. In turn, “Ac-Phe-Guf-Pro-cha-Bta-Phe-NH2 (peptide)” came in with an IC50 activity group, enzyme release assay in the assay with human C5aR (CD88) [1] below 50 nM. With “Ac-Phe-OrE-Pro-cha-Bta-Phe-NH2 (peptide)”, the IC50 activity group, enzyme release assay with human C5aR (CD88) [1] was below 200 nM. Take Ac-Phe-[Orn-Aze-cha-Trp-Nle] (peptide): in the assay with human C5aR (CD88) [1], the IC50 activity group, enzyme release assay was below 200 nM. Still for that read-out and setting: with “H-Bal-Phe-[Orn-Hyp-hle-Trp-Nle] (peptide)” the figure was below 200 nM; with “FAc-Phe-Orn-Aze-cha-Bta-Phe-NH2 (peptide)”, below 50 nM; with “Ac-Phe-Orn-Pro-ctb-Bta-Phe-NH2 (peptide)”, below 50 nM. With “Ac-Gly-Phe-Orn-Aze-cha-Bta-Phe-NH2 (peptide)”, the IC50 activity group, enzyme release assay in the assay with human C5aR (CD88) [1] was below 20 nM. On to “(-CO-CH2-NH-CO-)-Phe-Orn-Pro-cha-Bta-Phe-NH2 (peptide)”, for which the IC50 activity group, enzyme release assay in the assay with human C5aR (CD88) [1] is below 200 nM.

“Ac-Phe-Orn-Pro-cha-Bta-2Ni-NH2 (peptide)” gave an IC50 activity group, enzyme release assay in the assay with human C5aR (CD88) [1] below 50 nM. Turning to “Ac-Phe-Orn-Pro-hle-Bta-Pff-NH2 (peptide)”, the IC50 activity group, enzyme release assay with human C5aR (CD88) [1] is below 200 nM. The same measure, in the same setting: with “Ac-Pff-Orn-Pro-cha-Bta-Phe-NH2 (peptide)” the figure was below 50 nM. In the assay with human C5aR (CD88) [1], “Ac-Phe-[Orn-NMeAla-cha-Trp-Arg] (peptide)” returned an IC50, functional assay of 25 nM and an IC50 activity group, enzyme release assay below 50 nM. The molecule “Ac-Gly-Phe-Orn-Aze-hch-Bta-Phe-NH2 (peptide)” showed an IC50 activity group, enzyme release assay with human C5aR (CD88) [1] below 200 nM. As to H-Phe-[Orn-Ser-hle-Pff-Nle] (peptide), the IC50 activity group, enzyme release assay with human C5aR (CD88) [1] is below 50 nM.

As for “Ac-Gly-Thi-Orn-Aze-cha-Bta-Phe-NH2 (peptide)”, in the assay with human C5aR (CD88) [1], the IC50 activity group, enzyme release assay is below 50 nM. In the assay with human C5aR (CD88) [1], “FAc-Phe-Orn-Pro-cha-Bta-Phe-NH2 (peptide)” displayed an IC50 activity group, enzyme release assay below 50 nM. Molecule “Ac-Phe-Orn-Aze-cha-Pff-Phe-NH2 (peptide)” came in with an IC50 activity group, enzyme release assay with human C5aR (CD88) [1] below 200 nM. On the same count and under the same terms, then “Ac-Guf-Phe-Orn-Aze-cha-Bta-Phe-NH2 (peptide)”, with below 200 nM. Still for that read-out and setting: then “H-Nip-Phe-Cit-Pro-hle-Bta-Phe-NH2 (peptide)”, with below 200 nM. The same measure, in the same setting: with H-Phe-[Orn-Hyp-cha-Trp-Phe] (peptide) the figure was below 50 nM. Turning to “Ac-Phe-Orn-Pro-cha-1Ni-Phe-NH2 (peptide)”, in the assay with human C5aR (CD88) [1], the IC50 activity group, enzyme release assay is below 200 nM.

In the assay with human C5aR (CD88) [1], Ac-Phe-[Orn-Hyp-cha-Trp-Nle] (peptide) gave an IC50 activity group, enzyme release assay below 20 nM. The same measure, in the same setting: with H-Phe-[Orn-Pro-hle-Pff-Phe] (peptide) the figure was below 50 nM; with “Ac-Mmy-Orn-Pro-hle-Pff-Phe-NH2 (peptide)”, below 200 nM.

Turning to “Ac-Phe-Orn-Pro-hle-Ocf-Phe-NH2 (peptide)”, the IC50 activity group, enzyme release assay with human C5aR (CD88) [1] was below 200 nM. “Ac-Phe-Ffa-Pro-hle-Bta-Phe-NH2 (peptide)” yielded an IC50 activity group, enzyme release assay with human C5aR (CD88) [1] below 20 nM.

Take “Ac-Phe-Bta-Aze-cha-Bta-Phe-NH2 (peptide)”: in the assay with human C5aR (CD88) [1], the IC50 activity group, enzyme release assay was below 50 nM. With “Ac-Phe-Eep-Pro-cha-Bta-Phe-NH2 (peptide)”, the IC50 activity group, enzyme release assay in the assay with human C5aR (CD88) [1] was below 200 nM. Ac-Phe-[Orn-Pro-cha-Pff-Phe] (peptide): the IC50 activity group, enzyme release assay with human C5aR (CD88) [1] is below 200 nM. In turn, H-Phe-[Orn-Ser-hle-Mcf-Leu] (peptide) showed an IC50 activity group, enzyme release assay with human C5aR (CD88) [1] below 200 nM. As for “Ac-Phe-Orn-Tic-cha-Trp-Phe-NH2 (peptide)”, the IC50 activity group, enzyme release assay with human C5aR (CD88) [1] was below 200 nM. The molecule “Ac-Phe-[Orn-Hyp(COCH2OCH2CH2OCH2CH2OCH3)-cha-Trp-Nle] (peptide)” registered an IC50 activity group, enzyme release assay in the assay with human C5aR (CD88) [1] below 200 nM. On the same count and under the same terms, then “Ac-Phe-Orn-Pro-cha-Bta-Thi-NH2 (peptide)”, with below 20 nM. In turn, “Ac-Phe-Cit-Pro-cha-Bta-Phe-NH2 (peptide)” yielded an IC50 activity group, enzyme release assay with human C5aR (CD88) [1] below 200 nM. In the assay with human C5aR (CD88) [1], “Ac-Phe-Orn-Pro-cha-Bta-Eaa-NH2 (peptide)” returned an IC50 activity group, enzyme release assay below 200 nM. “Ac-Thi-Orn-Pro-cha-Trp-Phe-NH2 (peptide)” registered an IC50 activity group, enzyme release assay with human C5aR (CD88) [1] below 200 nM. Still for that read-out and setting: with H-Phe-[Orn-Pro-cha-Pff-Nle] (peptide) the figure was below 200 nM; with “Ac-Phe-[Orn-Hyp(CONH-CH2CH(OH)-CH2OH)-cha-Trp-Nle] (peptide)”, below 200 nM; with “Ac-Phe-Orn-Chy-cha-Bta-Phe-NH2 (peptide)”, below 200 nM. In turn, “CH3-SO2-Phe-Orn-Aze-cha-Bta-Phe-NH2 (peptide)” displayed an IC50 activity group, enzyme release assay in the assay with human C5aR (CD88) [1] below 50 nM. In the assay with human C5aR (CD88) [1], H-Phe-[Orn-Hyp-hle-Trp-Nva] (peptide) displayed an IC50 activity group, enzyme release assay below 200 nM. The molecule H-Phe-[Orn-Ser-hle-Pff-Phe] (peptide) came in with an IC50 activity group, enzyme release assay with human C5aR (CD88) [1] below 200 nM. H-Phe-[Orn-Hyp-cha-Trp-Nle] (peptide) had an IC50 activity group, enzyme release assay in the assay with human C5aR (CD88) [1] below 50 nM. “Me-O-CO-Phe-Orn-Pro-cha-Bta-Phe-NH2 (peptide)” yielded an IC50 activity group, enzyme release assay with human C5aR (CD88) [1] below 200 nM. Still for that read-out and setting: with “Ac-Phe-Orn-Pro-hle-Pff-Cha-NH2 (peptide)” the figure was below 200 nM; with “Ac-Phe-Orn-Pro-cha-Bta-1Ni-NH2 (peptide)”, below 200 nM. On to Ac-Phe-[Orn-Ser-hle-Trp-Nle] (peptide), for which, in the assay with human C5aR (CD88) [1], the IC50 activity group, enzyme release assay was below 200 nM. “Ac-Pff-Orn-Pro-hle-Mcf-Pff-NH2 (peptide)” returned an IC50 activity group, enzyme release assay with human C5aR (CD88) [1] below 200 nM. In the assay with human C5aR (CD88) [1], “Ac-Phe-Orn-Pro-hle-Bta-Egy-NH2 (peptide)” showed an IC50 activity group, enzyme release assay below 200 nM.

Consider “Ac-Phe-Orn-Pip-cha-Trp-Phe-NH2 (peptide)”, for which, in the assay with human C5aR (CD88) [1], the EC50, agonistic activity, enzyme release assay is above 100000 nM and the IC50 activity group, enzyme release assay is below 50 nM. Molecule “Ac-Phe-Orn-Hyp-hle-Bta-Phe-NH2 (peptide)” had an IC50 activity group, enzyme release assay with human C5aR (CD88) [1] below 200 nM.

The molecule “Ac-Phe-Orn-Pro-hle-Bta-1Ni-NH2 (peptide)” returned an IC50 activity group, enzyme release assay with human C5aR (CD88) [1] below 200 nM. Regarding Fbn-F[Orn]P[dCha]W[Nle] (lactam 2-C; reading uncertain; also: printed as Fbn-Phe-[Orn-Pro-cha-Trp-Nle]) [Fbn-Phe-[Orn-Pro-cha-Trp-Nle]], in the assay with human C5aR (CD88) [2], the “IC50 activity group, enzyme release assay” value (from here on “IC50 activity group”) was at most 200 nM.

As to Fck-F[Orn]P[dCha]W[Nle] (lactam 2-C (inferred)) [Fck-Phe-[Orn-Pro-cha-Trp-Nle]], in the assay with human C5aR (CD88) [2], the “IC50 activity group” value was at most 200 nM.

B1: Fck-[Phe-Orn-Pro-cha-Trp-Nle] (peptide)
peptide: Fck-F[Orn]P[dCha]W[Nle]
modifications: bridge (positions not given here); not fully specified; printed as Fck-[Phe-Orn-Pro-cha-Trp-Nle]; also: cyclic [1-6], linkage not given here
With B1, the “IC50 activity group” value with human C5aR (CD88) [2] is at most 200 nM.

As to FXPXWX (not fully specified; Ac-; Orn2; cha4 (D); Eew6; cyclic [2-6]) [Ac-Phe-[Orn-Pro-cha-Trp-Eew]], the “IC50 activity group” value with human C5aR (CD88) [2] is at most 2000 nM. Same read-out and setting: with Fbo-F[Orn]P[dCha]W[Nle] (lactam 2-C (inferred)) [Fbo-Phe-[Orn-Pro-cha-Trp-Nle]] the figure was at most 200 nM.

B2: H-Amf-[Orn-Aze-hle-Pff-Nle] (peptide)
peptide: H-[αMeF][Orn][Aze][d(hLeu)][Phe(F5)][Nle]
modifications: lactam 2-C
SMILES: CCCC[C@@H]1NC(=O)[C@H](Cc2c(F)c(F)c(F)c(F)c2F)NC(=O)[C@@H](CCC(C)C)NC(=O)[C@@H]2CCN2C(=O)[C@@H](NC(=O)[C@@](C)(N)Cc2ccccc2)CCCNC1=O
In the case of B2, the “IC50 activity group” value with human C5aR (CD88) [2] is at most 200 nM.
